Experimental data as given in publication PMC12004451, “Characterization of the Two-Domain Peptide Binding Mechanism of the Human CGRP Receptor for CGRP and the Ultrahigh Affinity ssCGRP Variant” (Biochemistry, 2025).
“And” between values parts separate entries of the source, which are not always exact repeats. Equal entries are not always repeated. Where two headings read alike, the source gives them in different places. Ends that are not written are not given here. Peptide text beside a SMILES is read from it. * marks the point of attachment. 5TAMRA = CN(C)c1ccc2c(c1)Oc1cc(N(C)C)ccc1C21OC(=O)c2cc(C(=O)*)ccc21

Key:
[1] = target: T1, CGRP receptor (Nluc-CLR:RAMP1) (Homo sapiens, UniProt O60894+Q16602); test: nanoBRET association kinetics of TAMRA probes; type: binding; conditions: association kinetics, 25 °C, mean ± SEM, n=3
T1 construct: N-terminally Nanoluciferase (NLuc)-tagged CLR (pcDNA3.1(+)sec/NanoLuc-GSGIS-CLR.23-461); Wild-type CLR and RAMP expression plasmids were obtained from cDNA.org; sec (vector secretion signal before NanoLuc) (N); expressed in transfected cells; host or cells: COS-7 cells, membrane preparation
Description: After 2 days, the cells were washed with PBS and harvested with ice-cold PBS + 5 mM EDTA. The cells were pelleted in a centrifuge at 1000g for 5 min at 4 °C and resuspended in a hypotonic buffer (25 mM NaHEPES pH 7.5, 2 mM MgCl2, 1 mM EDTA, and 1× EDTA-free PIERCE protease inhibitor tablet). After resuspension, cells were homogenized with an Ultra Turrax for 30 s at 10,000 rpm followed by a 10 min incubation. Cell debris was pelleted at 800g for 10 min and the supernatant was transferred to ultracentrifuge tubes and centrifuged at 100,000g for 1 h. Membranes were resuspended in a wash buffer (25 mM NaHEPES pH 7.5, 250 mM NaCl, 2 mM MgCl2, 1 mM EDTA, and 1× protease inhibitor tablet). The homogenization and ultracentrifugation were repeated once more and the membranes were resuspended in storage buffer (25 mM NaHEPES pH 7.5, 25 mM NaCl, 2 mM MgCl2, 10% v/v glycerol, and 1× protease inhibitor tablet). The resuspended membranes were homogenized, aliquoted, and flash frozen in liquid nitrogen for storage at -80 °C. Total protein was quantitated using the DC protein assay (BioRad) per the manufacturer's instructions. The concentration of NLuc-CLR was determined by comparing the membrane prep luminescence to a standard curve using purified NLuc enzyme (Promega; […]). […] Costar 3912). […] The observed association rates (kobs) were plotted against probe concentration and the data was analyzed by linear regression. The kon and koff were obtained as the slope and y-intercept, respectively.

[2] = target: T1, CGRP receptor (Nluc-CLR:RAMP1); test: nanoBRET dissociation kinetics of TAMRA probes; type: binding
Description: After 2 days, the cells were washed with PBS and harvested with ice-cold PBS + 5 mM EDTA. The cells were pelleted in a centrifuge at 1000g for 5 min at 4 °C and resuspended in a hypotonic buffer (25 mM NaHEPES pH 7.5, 2 mM MgCl2, 1 mM EDTA, and 1× EDTA-free PIERCE protease inhibitor tablet). After resuspension, cells were homogenized with an Ultra Turrax for 30 s at 10,000 rpm followed by a 10 min incubation. Cell debris was pelleted at 800g for 10 min and the supernatant was transferred to ultracentrifuge tubes and centrifuged at 100,000g for 1 h. Membranes were resuspended in a wash buffer (25 mM NaHEPES pH 7.5, 250 mM NaCl, 2 mM MgCl2, 1 mM EDTA, and 1× protease inhibitor tablet). The homogenization and ultracentrifugation were repeated once more and the membranes were resuspended in storage buffer (25 mM NaHEPES pH 7.5, 25 mM NaCl, 2 mM MgCl2, 10% v/v glycerol, and 1× protease inhibitor tablet). The resuspended membranes were homogenized, aliquoted, and flash frozen in liquid nitrogen for storage at -80 °C. Total protein was quantitated using the DC protein assay (BioRad) per the manufacturer's instructions. The concentration of NLuc-CLR was determined by comparing the membrane prep luminescence to a standard curve using purified NLuc enzyme (Promega; […]). The total protein concentration was 0.91 mg/mL and the NLuc-CLR was 7.35 nM. For dissociation kinetics, the membranes and probe in binding buffer were incubated in a 96-well white plate (Corning; Costar 3912) followed by furimazine addition at 1× for 5 min (75 μL volume). […] The buffer control defined the stability of the signal. […] Unlabeled […](8-37) (4×; 10 μM) or binding buffer was loaded into the injectors and injected into the plate, which was read for 4 h. […](8-37) (4×; 1 μM) or binding buffer was loaded into the injectors and injected into the plate, which was read for 1 h. The BRET ratio 610/460 was plotted against time and the membrane only control was subtracted. The dissociation data were normalized to their corresponding buffer control injections as 100% (100*value/baseline) to account for signal decay with time. The normalized dissociation curves were fit to a one-phase (dashed line) (https://www.graphpad.com/guides/prism/latest/curve-fitting/reg_exponential_[…]) or a two-phase (solid line) (https://www.graphpad.com/guides/prism/latest/curve-fitting/reg_exponential_[…]) exponential decay models in GraphPad Prism to determine the koff.

[3] = target: NLuc-CLR:RAMP1 membranes with 30 μM purified sumo-miniGs (G protein-coupled state of the CGRPR) (UniProt Q16602); test: FRET or BRET; nanoBRET equilibrium saturation binding; as the uncoupled format but with 30 μM purified sumo-miniGs (G protein coupled state); 4 h; room temperature
[4] = target: NLuc-CLR:RAMP1 (human CGRP receptor, CGRPR), membrane preparation (human) (UniProt Q16602); test: FRET or BRET; nanoBRET association kinetics; membranes injected into 2-fold serial dilutions of TAMRA probe; 25 °C; one-phase association fits, kobs against probe concentration by linear regression (kon slope, koff intercept); Kd calculated as koff/kon
[5] = target: NLuc-CLR:RAMP1 (human CGRP receptor, CGRPR), membrane preparation (human) (UniProt Q16602)
[6] = target: NLuc-CLR:RAMP1 (human CGRP receptor, CGRPR), membrane preparation (human) (UniProt Q16602); test: FRET or BRET; nanoBRET competition association kinetics, simultaneous addition of 20 nM CGRP(27-37)*-TAMRA and unlabeled (27-37) peptide; 25 °C; Motulsky-Mahan equation with a signal decay term; Kd calculated as koff/kon
[7] = target: T1, CGRP receptor (Nluc-CLR:RAMP1); test: nanoBRET equilibrium competition binding, Nluc-CLR:RAMP1 membranes; conditions: 8 h, room temperature, Cheng-Prusoff, mean ± SEM, n=3
Description: After 2 days, the cells were washed with PBS and harvested with ice-cold PBS + 5 mM EDTA. The cells were pelleted in a centrifuge at 1000g for 5 min at 4 °C and resuspended in a hypotonic buffer (25 mM NaHEPES pH 7.5, 2 mM MgCl2, 1 mM EDTA, and 1× EDTA-free PIERCE protease inhibitor tablet). After resuspension, cells were homogenized with an Ultra Turrax for 30 s at 10,000 rpm followed by a 10 min incubation. Cell debris was pelleted at 800g for 10 min and the supernatant was transferred to ultracentrifuge tubes and centrifuged at 100,000g for 1 h. Membranes were resuspended in a wash buffer (25 mM NaHEPES pH 7.5, 250 mM NaCl, 2 mM MgCl2, 1 mM EDTA, and 1× protease inhibitor tablet). The homogenization and ultracentrifugation were repeated once more and the membranes were resuspended in storage buffer (25 mM NaHEPES pH 7.5, 25 mM NaCl, 2 mM MgCl2, 10% v/v glycerol, and 1× protease inhibitor tablet). The resuspended membranes were homogenized, aliquoted, and flash frozen in liquid nitrogen for storage at -80 °C. Total protein was quantitated using the DC protein assay (BioRad) per the manufacturer's instructions. The concentration of NLuc-CLR was determined by comparing the membrane prep luminescence to a standard curve using purified NLuc enzyme (Promega; […]). […] The Cheng-Prusoff correction[30] was used to calculate the Ki from the IC50.

[8] = target: NLuc-CLR:RAMP1 (human CGRP receptor, CGRPR), membrane preparation (human) (UniProt Q16602); test: FRET or BRET; nanoBRET dissociation kinetics; membranes preincubated with probe (1 nM ssCGRP(8-37)-TAMRA or 10 nM AM2/IMD(8-47)-TAMRA), dissociation started by injection of excess unlabeled ssCGRP(8-37); 25 °C; normalised to buffer control; two-phase exponential decay
[9] = target: NLuc-CLR:RAMP1 (human CGRP receptor, CGRPR), membrane preparation (human) (UniProt Q16602); test: FRET or BRET; nanoBRET equilibrium saturation binding; 3-fold serial dilutions of TAMRA probe with NLuc-CLR:RAMP1 membranes (0.01 mg/mL total protein, 0.08 nM NLuc-CLR) and 50 μM GTPγS (uncoupled state); 2 h or 4 h; room temperature; 25 mM NaHEPES pH 7.4, […] NaCl, 5 mM KCl, 1 mM KH2PO4, 3 mM MgSO4, 2 mM CaCl2, 1 mg/mL FAF-BSA, 50 μg/mL saponin; one-site specific binding fit
[10] = target: NLuc-CLR:RAMP1 (human CGRP receptor, CGRPR) in COS-7 membranes (human) (UniProt Q16602); test: FRET or BRET; nanoBRET equilibrium saturation binding of TAMRA probe to NLuc-CLR:RAMP1 COS-7 membranes (0.08 nM NLuc-CLR), G protein uncoupled state with 50 uM GTPgammaS, room temperature, 25 mM NaHEPES pH 7.4, […] NaCl; one-site specific binding fit
[11] = target: NLuc-CLR:RAMP1 (human CGRP receptor, CGRPR) in COS-7 membranes (human) (UniProt Q16602); test: FRET or BRET; nanoBRET association kinetics of TAMRA probe on NLuc-CLR:RAMP1 COS-7 membranes, 25 C; kobs against probe concentration, linear regression; Kd calculated as koff/kon
[12] = 1/koff slow, two-phase dissociation, read-out: Residence time slow

CC(C)C[C@H](NC(=O)CNC(=O)[C@H](C)NC(=O)[C@H](CC(C)C)NC(=O)[C@H](CCCNC(=N)N)NC(=O)[C@H](Cc1c[nH]cn1)NC(=O)[C@@H](NC(=O)[C@@H](N)C(C)C)[C@@H](C)O)C(=O)N[C@@H](CC(C)C)C(=O)N[C@@H](CO)C(=O)N[C@@H](CCCNC(=N)N)C(=O)N[C@@H](CO)C(=O)NCC(=O)NCC(=O)N[C@H](C(=O)N[C@H](C(=O)N[C@@H](CCCCN)C(=O)N[C@@H](CC(N)=O)C(=O)N[C@@H](CCCCNC(=O)c1ccc2c(c1)C(=O)OC21c2ccc(N(C)C)cc2Oc2cc(N(C)C)ccc21)C(=O)N[C@@H](Cc1ccccc1)C(=O)N[C@H](C(=O)N1CCC[C@H]1C(=O)N[C@H](C(=O)N[C@@H](CC(=O)O)C(=O)N[C@H](C(=O)NCC(=O)N1CCC[C@H]1C(=O)N[C@@H](Cc1c[nH]c2ccccc12)C(=O)N[C@@H](CO)C(=O)N[C@@H](Cc1ccccc1)C(N)=O)C(C)C)[C@@H](C)O)C(C)C)C(C)C)C(C)C [ssCGRP(8-37)-TAMRA, αCGRP(8-37) N26K-TAMRA/N31D/S34P/K35W/A36S] (H-VTHRLAGLLSRSGGVVKNK(5TAMRA)FVPTDVGPWSF-NH2; N-terminus assumed)
kon ([1]; kobs vs probe concentration, slope of linear regression, fit of first 10 min (full 1 h 15 min for ssCGRP(8-37)-TAMRA)): 3.62e+06 M⁻¹ s⁻¹
koff ([1]; y-intercept of kobs vs probe concentration): 0.0003 s⁻¹
residence time ([2]; 1/koff fast, two-phase dissociation, read-out: Residence time fast): 19.1 ± 1.9 min
residence time [2, 12]: 75.7 ± 3.49 min
t1/2 fast ([2]; ln 2/koff fast, two-phase dissociation): 13.25 ± 1.32 min and 13 min
t1/2 slow ([2]; ln 2/koff slow, two-phase dissociation): 52.45 ± 2.42 min and 52 min
Percent fast ([2]; share of the fast component, two-phase dissociation): 25.6 ± 3.5% and 25.6%
koff ([2]; two-phase exponential decay, same conditions as koff fast, mean ± SEM, n=3): 0.000222 s⁻¹

AM2/IMD(8-47)-TAMRA (peptide)
Kd [3]: 6.5 nM
Kd [4]: 8.1 nM
half-life [4]: 1.6 min

CGRP(27-37) (peptide)
apparent melting temperature of LMNG/CHS-solubilised MBP-CLR-EGFP:MBP-RAMP1 heterodimer, native PAGE thermostability assay (ligand-free 38.2 °C) [5]: 39.8 °C
half-life [6]: 0.06 min

VTHRLAGLLSRSGGVVKNNFVPTDVGPWSF-NH2 [ssCGRP(8-37)]
affinity (summary, both receptor states): 0.5 nM
Ki ([7]; G protein coupled state (30 μM sumo-miniGs), 3 nM AM2/IMD(8-47)-TAMRA probe, read-out: Ki + mGs): 0.6 ± 0.05 nM
Ki ([7]; G protein uncoupled state (50 μM GTPγS), 30 nM AM2/IMD(8-47)-TAMRA probe, read-out: Ki + GTPγS): 0.43 ± 0.02 nM
residence time [2, 12]: 76 min

αCGRP(8-37) (peptide)
apparent melting temperature of LMNG/CHS-solubilised MBP-CLR-EGFP:MBP-RAMP1 heterodimer, native PAGE thermostability assay (ligand-free 38.2 °C) [5]: 43.6 °C

αCGRP(8-37) N26K-TAMRA/N31D/S34P/K35W/A36S (peptide)
half-life of the fast component [8]: 13 min
half-life of the slow component [8]: 52 min
koff fast [8]: 0.053 min^–1
koff slow [8]: 0.013 min^–1
residence time (1/koff slow) [8]: 76 min
residence time of the fast component [8]: 19 min
Kd [9]: 0.4 nM
Kd [4]: 0.085 nM
half-life [4]: 38 min
koff [4]: 0.0003 s⁻¹
kon [4]: 3.62e+06 M⁻¹ s⁻¹

αCGRP(27-37) N31D/S34P/K35-TAMRA/A36S/F37Y (peptide)
Kd [9]: 28.7 nM
Kd [10]: 28.7 nM
Kd [4]: 22.5 nM
half-life [4]: 0.183 min
koff [4]: 0.0635 s⁻¹
kon [4]: 2.75e+06 M⁻¹ s⁻¹
Kd [11]: 22.5 nM
